Test: yeast display, Sf9 membrane polyspecificity reagent, FACS + sequencing; frameworks hold sequencing errors
Summary of the method: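 Using colony PCR, genes from sorted yeast display clones were amplified, then sequenced on MiSeq at 2 × 250 and filtered by CDR length. The clones had been stained with 10% biotinylated, detergent-solubilized Sf9 membrane reagent for 1 hour at 4 °C and sorted by FACS into low and high (top ~1%) gates on anti-HA and streptavidin fluorescence. Polyreactivity labels come from the gate of origin.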

| Sequence | polyreactivity (PSR sort gate) |
| --- | --- |
| QDQLVESGGGLVQAGGSLRLSCAASGRTFSRYTMGWYRQAPGKERELVAAISKRGGSTYYADSVKGRLTISRDNAKNTVYLQMNSLKPADTAVYYCNAYGLVGLDGVKMYYWGQGTQVTVSS | high polyreactivity |
| QDQLVESGGGLVQAGGSLRLSCAASGRTFTHYALGWYRQAPGKERELVAAISWSGGITYYADSVKGRFTISRDYAKNTVYLQMNSLKPEDTAVYYCAAEHYFSGYYYWGQGTQVTVSS | high polyreactivity |
| QDQLVESGGGLVQAGGSLRLSCAASGRTFWRNAMGWSRQAPGKEREMVAAINSGGRTYYADAVKGRFTISRDNAKNTVYLQMNSLKPEDTAVYYCAVYVHRFLDGRVRSYRGDYWGQGTQVTVSS | high polyreactivity |
| QDQLVESGGGLVQAGGSLRLSCAASGSIFARYAMGWYRQAPGKERELVAAINSTVSTNYADSVKGRFTISRDNAKNTVYLQMNSLKPEDTAVYYCAVDIVRGGRDSWGQGTQVTVSS | low polyreactivity |
| QDQLVESGGGLVQAGGSLRLSCAASGSIFERYTMGWSRQAPGKERELVAAITTNGGSTYADSVKGRFTISRDNAKNTVYLQMNTLKPEDTADYYCNVDVYLYAKEYDYWGQGTQVTVSS | high polyreactivity |
| QDQLVESGGGLVQAGGSLRLSCAASGSIFGGNTMGWYRQAPGKERELVAAISRSGGSTYYADSVKGRFTISRDNAKNTVYLQMNSLKPEDTEVYYCYRKQAGHAKGYDYWGQGTQVTVSS | high polyreactivity |
| QDQLVESGGGLVQAGGSLRLSCAASGSIFNGNAMGWYRPAPGKERELVAAITRRGGRTFYADSVKGRFTISRDNAKNSVYLQMNSLKPEDTAVYYCNAYSKAVQGGYDYWGQGTQVTVSS | high polyreactivity |
| QDQLVESGGGLVQAGGSLRLSCAASGSIFPDYTMGWYRQAPGKERELVPGNTWNGGGTYYADSVKGRITISRDNAKNTVYLQMYSLKPEDTAVYYCAAVWSGSRSTGAWGPYNYWGQGTQVTVSS | low polyreactivity |
| QDQLVESGGGLVQAGGSLRLSCAASGSIFPGYAMGWYRKAPGKEREFVATITWSGGSTYYADSVKGRFTISRDNAKNTVYLQMNSLKPEDTAVYYCNADSNWYYQWNYYGLYDYWGQGTQVTVSS | low polyreactivity |
| QDQLVESGGGLVQAGGSLRLSCAASGSIFRAYAMGWYRQAPGKERELVAAISRSGDSTYYADSVKGRFTISRDNAKNTVYLQMNSLKPEDTAVYYCAAQRKPYVRPSGPYKRRDYWGQGTQVTVSS | high polyreactivity |
| QDQLVESGGGLVQAGGSLRLSCAASGSIFTDYAMGWYRQAPAKERELVAAITSSGGSTYYADSVKGRFTISRDYAKNTVYLQMKSLKTEDTAVYYCAADRITIYDYWGQGTQVTVSS | low polyreactivity |
| QDQLVESGGGLVQAGGSLRLSCAASGSIFVNYAMGWYRQAPGKERELVAAISRSGGRTYYADSVKGRFTISRDSAKITVYLQMNSLIPEDTAVYYCNVDPVLRTIEGDYWGQGTQVTVSS | high polyreactivity |
| QDQLVESGGGLVQAGGSLRLSCAASGSIFVRYAMGWYRQAPGKERELVAAITSSAGYTYYADSVKGRFTISRDNAKNTVNLQMNSLKPEDTAVYYCAAVRYDASKFYYWGAGTQVTVSS | high polyreactivity |
| QDQLVESGGGLVQAGGSLRLSCAASGSIFYRNAMGWYRQAPGKERELVAAISSDGSTNYADSVKGRFTISRDNAKNTVYLQMNSLKPEDTAVYYCAAPWTQILDYWGQGTQVTVSS | low polyreactivity |
| QDQLVESGGGLVQAGGSLRLSCAASGSMFDYYAMGWYRQAPGKERELVAAISGSGSRTYYADSVKGRFTISRVTAKNTVYIQMNRLKPEDTAFYYCAAESVVYDIVGYEYWYDYYWGLGTQVTVSS | high polyreactivity |
| QDQLVESGGGLVQAGGSLRLSCAASGSTFDGYAMGWYRPAPGKERELVADITSGGSTYYADSVKGRFTISRDNAKNTVYLQMNSLKPEDTAVYYCAVEGWWDDYNSRAGEFNYWGQRTQVTVSS | low polyreactivity |
| QDQLVESGGGLVQAGGSLRLSCAASGSTFGFYAMGWYRQAPGKERELVAAITTGGSTNYADSVKGRFTISRDNAKNTVYLQMNSLKPEDTAVYYCNADVYWNPYYDYDYWGQGTQVTVSS | high polyreactivity |

Reference: the nanobody polyreactivity screen of Harvey et al. (2022)
